# Laboratory results: patent publication US20090105152A1
# Numbered stars: 1 amine (or outer) side, 2 acyl side, 3 side chain; on linkers, the order of the positions; unused ones are H or OH. Square brackets hold non-standard residues; d marks the D form. * marks the point of attachment. Hyp(Bzl) = O-benzyl-trans-4-hydroxyproline, O=C([C@@H]1C[C@@H](OCc2ccccc2)CN1[*:1])[*:2]; Asp(NHPen) = N-omega-pentylasparagine, CCCCCNC(=O)C[C@H](N[*:1])C(=O)[*:2]; pY = N[C@@H](Cc1ccc(OP(=O)(O)O)cc1)C(=O)O; Pro(4S-NH2) = N[C@@H]1CN[C@H](C(=O)O)C1; Phe(3-F) = N[C@@H](Cc1cccc(F)c1)C(=O)O; Phe(4-F) = N[C@@H](Cc1ccc(F)cc1)C(=O)O; Phe(2-F) = N[C@@H](Cc1ccccc1F)C(=O)O; Arg(Me) = CNC(=N)NCCC[C@H](N)C(=O)O; Hyp = O=C(O)[C@@H]1C[C@@H](O)CN1; dNMeF = CN[C@H](Cc1ccccc1)C(=O)O; Aib = CC(C)(N)C(=O)O; Glycolyl = O=C(CO)*; Ahx = NCCCCCC(=O)O; azaGly = NNC(=O)O
# Biological target: human OT7T175 (metastin receptor) (human) (UniProt Q969F8)
# Test: cell-based or functional assay
# human OT7T175 (metastin receptor) (human), sequence (Q969F8 whole entry L364H): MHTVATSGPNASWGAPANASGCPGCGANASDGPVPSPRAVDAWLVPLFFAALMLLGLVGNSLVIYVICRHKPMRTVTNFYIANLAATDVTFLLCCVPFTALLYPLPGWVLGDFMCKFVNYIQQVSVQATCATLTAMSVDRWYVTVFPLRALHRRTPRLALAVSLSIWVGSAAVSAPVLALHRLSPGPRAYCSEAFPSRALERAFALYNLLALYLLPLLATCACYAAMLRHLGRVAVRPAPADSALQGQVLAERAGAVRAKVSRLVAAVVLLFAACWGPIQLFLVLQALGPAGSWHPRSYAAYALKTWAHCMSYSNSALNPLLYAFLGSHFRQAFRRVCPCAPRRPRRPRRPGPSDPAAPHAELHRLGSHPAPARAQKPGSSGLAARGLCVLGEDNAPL
row,Binder,intracellular Ca ion level-increasing activity [specific activity to Metastin (1-54)] (relative to Metastin (1-54))
1,"Ac-[dY][Aib]NT[Phe(3-F)][azaGly]L[Arg(Me)]W-NH2 (SMILES CNC(=N)NCCC[C@H](NC(=O)[C@H](CC(C)C)NC(=O)NNC(=O)[C@H](Cc1cccc(F)c1)NC(=O)[C@@H](NC(=O)[C@H](CC(N)=O)NC(=O)C(C)(C)NC(=O)[C@@H](Cc1ccc(O)cc1)NC(C)=O)[C@@H](C)O)C(=O)N[C@@H](Cc1c[nH]c2ccccc12)C(N)=O) [des(1)-Ac-[D-Tyr2,Aib3,Thr5,Phe(3F)6,AzaGly7,Arg(Me)9,Trp10]MS10]",3.3
2,"Ac-[dY][Hyp]NTF[azaGly]LRW-NH2 (SMILES CC(=O)N[C@H](Cc1ccc(O)cc1)C(=O)N1C[C@H](O)C[C@H]1C(=O)N[C@@H](CC(N)=O)C(=O)N[C@H](C(=O)N[C@@H](Cc1ccccc1)C(=O)NNC(=O)N[C@@H](CC(C)C)C(=O)N[C@@H](CCCNC(=N)N)C(=O)N[C@@H](Cc1c[nH]c2ccccc12)C(N)=O)[C@@H](C)O) [des(1)-Ac-[D-Tyr2,Hyp3,Thr5,AzaGly7,Trp10]MS10]",1.4
3,"Ac-[dY]ENT[Phe(4-F)][azaGly]L[Arg(Me)]W-NH2 (SMILES CNC(=N)NCCC[C@H](NC(=O)[C@H](CC(C)C)NC(=O)NNC(=O)[C@H](Cc1ccc(F)cc1)NC(=O)[C@@H](NC(=O)[C@H](CC(N)=O)NC(=O)[C@H](CCC(=O)O)NC(=O)[C@@H](Cc1ccc(O)cc1)NC(C)=O)[C@@H](C)O)C(=O)N[C@@H](Cc1c[nH]c2ccccc12)C(N)=O) [des(1)-Ac-[D-Tyr2,Glu3,Thr5,Phe(4F)6,AzaGly7,Arg(Me)9,Trp10]MS10]",2.7
4,"Ac-[dY][Aib]NT[Phe(4-F)][azaGly]L[Arg(Me)]W-NH2 (SMILES CNC(=N)NCCC[C@H](NC(=O)[C@H](CC(C)C)NC(=O)NNC(=O)[C@H](Cc1ccc(F)cc1)NC(=O)[C@@H](NC(=O)[C@H](CC(N)=O)NC(=O)C(C)(C)NC(=O)[C@@H](Cc1ccc(O)cc1)NC(C)=O)[C@@H](C)O)C(=O)N[C@@H](Cc1c[nH]c2ccccc12)C(N)=O) [des(1)-Ac-[D-Tyr2,Aib3,Thr5,Phe(4F)6,AzaGly7,Arg(Me)9,Trp10]MS10]",2.9
5,"Ac-[dY][dW][Asp(NHPen)]TF[azaGly]L[Arg(Me)]W-NH2 (SMILES CCCCCNC(=O)C[C@H](NC(=O)[C@@H](Cc1c[nH]c2ccccc12)NC(=O)[C@@H](Cc1ccc(O)cc1)NC(C)=O)C(=O)N[C@H](C(=O)N[C@@H](Cc1ccccc1)C(=O)NNC(=O)N[C@@H](CC(C)C)C(=O)N[C@@H](CCCNC(=N)NC)C(=O)N[C@@H](Cc1c[nH]c2ccccc12)C(N)=O)[C@@H](C)O) [des(1)-Ac-[D-Tyr2,D-Trp3,Asp(NHPen)4,Thr5,AzaGly7,Arg(Me)9,Trp10]MS10]",0.7
6,"Ac-[Ahx]NTF[azaGly]L[Arg(Me)]W-NH2 (SMILES CNC(=N)NCCC[C@H](NC(=O)[C@H](CC(C)C)NC(=O)NNC(=O)[C@H](Cc1ccccc1)NC(=O)[C@@H](NC(=O)[C@H](CC(N)=O)NC(=O)CCCCCNC(C)=O)[C@@H](C)O)C(=O)N[C@@H](Cc1c[nH]c2ccccc12)C(N)=O) [des(1-2)-Ac-[Acp3,Thr5,AzaGly7,Arg(Me)9,Trp10]MS10]",3.7
7,"Ac-[dY]GNT[Phe(3-F)][azaGly]L[Arg(Me)]W-NH2 (SMILES CNC(=N)NCCC[C@H](NC(=O)[C@H](CC(C)C)NC(=O)NNC(=O)[C@H](Cc1cccc(F)c1)NC(=O)[C@@H](NC(=O)[C@H](CC(N)=O)NC(=O)CNC(=O)[C@@H](Cc1ccc(O)cc1)NC(C)=O)[C@@H](C)O)C(=O)N[C@@H](Cc1c[nH]c2ccccc12)C(N)=O) [des(1)-Ac-[D-Tyr2,Gly3,Thr5,Phe(3F)6,AzaGly7,Arg(Me)9,Trp10]MS10]",3.2
8,"Ac-[dY][dNMeF]NTF[azaGly]L[Arg(Me)]W-NH2 (SMILES CNC(=N)NCCC[C@H](NC(=O)[C@H](CC(C)C)NC(=O)NNC(=O)[C@H](Cc1ccccc1)NC(=O)[C@@H](NC(=O)[C@H](CC(N)=O)NC(=O)[C@@H](Cc1ccccc1)N(C)C(=O)[C@@H](Cc1ccc(O)cc1)NC(C)=O)[C@@H](C)O)C(=O)N[C@@H](Cc1c[nH]c2ccccc12)C(N)=O) [des(1)-Ac-[D-Tyr2,D-NMePhe3,Thr5,AzaGly7,Arg(Me)9,Trp10]MS10]",1.8
9,"Ac-[dY]GNT[Phe(2-F)][azaGly]L[Arg(Me)]W-NH2 (SMILES CNC(=N)NCCC[C@H](NC(=O)[C@H](CC(C)C)NC(=O)NNC(=O)[C@H](Cc1ccccc1F)NC(=O)[C@@H](NC(=O)[C@H](CC(N)=O)NC(=O)CNC(=O)[C@@H](Cc1ccc(O)cc1)NC(C)=O)[C@@H](C)O)C(=O)N[C@@H](Cc1c[nH]c2ccccc12)C(N)=O) [des(1)-Ac-[D-Tyr2,Gly3,Thr5,Phe(2F)6,AzaGly7,Arg(Me)9,Trp10]MS10]",8.8
10,"Ac-[dY][Aib]NT[Phe(2-F)][azaGly]L[Arg(Me)]W-NH2 (SMILES CNC(=N)NCCC[C@H](NC(=O)[C@H](CC(C)C)NC(=O)NNC(=O)[C@H](Cc1ccccc1F)NC(=O)[C@@H](NC(=O)[C@H](CC(N)=O)NC(=O)C(C)(C)NC(=O)[C@@H](Cc1ccc(O)cc1)NC(C)=O)[C@@H](C)O)C(=O)N[C@@H](Cc1c[nH]c2ccccc12)C(N)=O) [des(1)-Ac-[D-Tyr2,Aib3,Thr5,Phe(2F)6,AzaGly7,Arg(Me)9,Trp10]MS10]",3.4
11,"Glycolyl-[dY][Hyp]NTF[azaGly]L[Arg(Me)]W-NH2 (SMILES CNC(=N)NCCC[C@H](NC(=O)[C@H](CC(C)C)NC(=O)NNC(=O)[C@H](Cc1ccccc1)NC(=O)[C@@H](NC(=O)[C@H](CC(N)=O)NC(=O)[C@@H]1C[C@@H](O)CN1C(=O)[C@@H](Cc1ccc(O)cc1)NC(=O)CO)[C@@H](C)O)C(=O)N[C@@H](Cc1c[nH]c2ccccc12)C(N)=O) [des(1)-Glycoloyl-[D-Tyr2,Hyp3,Thr5,AzaGly7,Arg(Me)9,Trp10]MS10]",1.5
12,"Ac-[dY]GNT[Phe(4-F)][azaGly]L[Arg(Me)]W-NH2 (SMILES CNC(=N)NCCC[C@H](NC(=O)[C@H](CC(C)C)NC(=O)NNC(=O)[C@H](Cc1ccc(F)cc1)NC(=O)[C@@H](NC(=O)[C@H](CC(N)=O)NC(=O)CNC(=O)[C@@H](Cc1ccc(O)cc1)NC(C)=O)[C@@H](C)O)C(=O)N[C@@H](Cc1c[nH]c2ccccc12)C(N)=O) [des(1)-Ac-[D-Tyr2,Gly3,Thr5,Phe(4F)6,AzaGly7,Arg(Me)9,Trp10]MS10]",2.3

# The next lines start with the values.
row,intracellular Ca ion level-increasing activity [specific activity to Metastin (1-54)] (relative to Metastin (1-54)),Binder
1,1,"Ac-[dY][Hyp(Bzl)]NTF[azaGly]L[Arg(Me)]W-NH2 (SMILES CNC(=N)NCCC[C@H](NC(=O)[C@H](CC(C)C)NC(=O)NNC(=O)[C@H](Cc1ccccc1)NC(=O)[C@@H](NC(=O)[C@H](CC(N)=O)NC(=O)[C@@H]1C[C@@H](OCc2ccccc2)CN1C(=O)[C@@H](Cc1ccc(O)cc1)NC(C)=O)[C@@H](C)O)C(=O)N[C@@H](Cc1c[nH]c2ccccc12)C(N)=O) [des(1)-Ac-[D-Tyr2,Hyp(Bzl)3,Thr5,AzaGly7,Arg(Me)9,Trp10]MS10]"
2,2.1,"Ac-[dY][Pro(4S-NH2)]NTF[azaGly]L[Arg(Me)]W-NH2 (SMILES CNC(=N)NCCC[C@H](NC(=O)[C@H](CC(C)C)NC(=O)NNC(=O)[C@H](Cc1ccccc1)NC(=O)[C@@H](NC(=O)[C@H](CC(N)=O)NC(=O)[C@@H]1C[C@H](N)CN1C(=O)[C@@H](Cc1ccc(O)cc1)NC(C)=O)[C@@H](C)O)C(=O)N[C@@H](Cc1c[nH]c2ccccc12)C(N)=O) [des(1)-Ac-[D-Tyr2,Pro(4NH2)3,Thr5,AzaGly7,Arg(Me)9,Trp10]MS10]"
3,1.8,"Ac-[dY]NTF[azaGly]L[Arg(Me)]W-NH2 (SMILES CNC(=N)NCCC[C@H](NC(=O)[C@H](CC(C)C)NC(=O)NNC(=O)[C@H](Cc1ccccc1)NC(=O)[C@@H](NC(=O)[C@H](CC(N)=O)NC(=O)[C@@H](Cc1ccc(O)cc1)NC(C)=O)[C@@H](C)O)C(=O)N[C@@H](Cc1c[nH]c2ccccc12)C(N)=O) [des(1-2)-Ac-[D-Tyr3,Thr5,AzaGly7,Arg(Me)9,Trp10]MS10]"
4,2.3,"Ac-[dY][Hyp]NT[Phe(4-F)][azaGly]L[Arg(Me)]W-NH2 (SMILES CNC(=N)NCCC[C@H](NC(=O)[C@H](CC(C)C)NC(=O)NNC(=O)[C@H](Cc1ccc(F)cc1)NC(=O)[C@@H](NC(=O)[C@H](CC(N)=O)NC(=O)[C@@H]1C[C@@H](O)CN1C(=O)[C@@H](Cc1ccc(O)cc1)NC(C)=O)[C@@H](C)O)C(=O)N[C@@H](Cc1c[nH]c2ccccc12)C(N)=O) [des(1)-Ac-[D-Tyr2,Hyp3,Thr5,Phe(4F)6,AzaGly7,Arg(Me)9,Trp10]MS10]"
5,1.3,"Ac-[dY][pY]NTF[azaGly]L[Arg(Me)]W-NH2 (SMILES CNC(=N)NCCC[C@H](NC(=O)[C@H](CC(C)C)NC(=O)NNC(=O)[C@H](Cc1ccccc1)NC(=O)[C@@H](NC(=O)[C@H](CC(N)=O)NC(=O)[C@H](Cc1ccc(OP(=O)(O)O)cc1)NC(=O)[C@@H](Cc1ccc(O)cc1)NC(C)=O)[C@@H](C)O)C(=O)N[C@@H](Cc1c[nH]c2ccccc12)C(N)=O) [des(1)-Ac-[D-Tyr2,Tyr(PO3H2)3,Thr5,AzaGly7,Arg(Me)9,Trp10]MS10]"
6,2.3,"Ac-[dY][Hyp]NT[dF][azaGly]L[Arg(Me)]W-NH2 [des(1)-Ac-[D-Tyr2,Hyp3,Thr5,D-Phe6,AzaGly7,Arg(Me)9,Trp10]MS10]"
7,3.4,"Ac-[dY]KNT[Phe(4-F)][azaGly]L[Arg(Me)]W-NH2 (SMILES CNC(=N)NCCC[C@H](NC(=O)[C@H](CC(C)C)NC(=O)NNC(=O)[C@H](Cc1ccc(F)cc1)NC(=O)[C@@H](NC(=O)[C@H](CC(N)=O)NC(=O)[C@H](CCCCN)NC(=O)[C@@H](Cc1ccc(O)cc1)NC(C)=O)[C@@H](C)O)C(=O)N[C@@H](Cc1c[nH]c2ccccc12)C(N)=O) [des(1)-Ac-[D-Tyr2,Lys3,Thr5,Phe(4F)6,AzaGly7,Arg(Me)9,Trp10]MS10]"
